What was measured:
H460 tumors = assay: H460 xenograft model, M830 with gemcitabine, cisplatin or radiation; type: in vivo, nude mice; details: endpoint 2000 mm^3 or Day 58; logrank
Description: (§1) The statistical tests were not adjusted for multiple comparisons.
Treatment began on Day 1 in eight groups of nude mice (n=10) with established subcutaneous H460 tumors of 75-126 mm^3. […] The study endpoint was a tumor volume of 2000 mm^3 or the final day, Day 58, whichever came first. […] The median TTE for controls was 15.6 days, establishing a maximum possible TGD of 42.4 days (272%) for the 58-day study.

DLD-1 tumor cells = assay: DLD-1 colorectal adenocarcinoma xenograft model, first study; type: in vivo, mice; details: DLD1 Colon, Day 21
Procedure: Tumor weights were calculated following surgical removal. […] Irinotecan was given once per week at 60 mg/kg i.v. and bevacizumab was dosed at 5 mg/kg i.p., three times per week.

HCT116 tumor cells = assay: HCT116 colorectal carcinoma xenograft model, TEM8 antibodies; type: in vivo, mice; details: HCT116 Colon; no combination partner; M830 IP 3 times per week; start at 60-80 mm^3
Procedure: Tumor cells were cultured in RPMI-1640 medium supplemented with 10% fetal bovine serum, 2 mM glutamine, 100 units/mL penicillin G sodium, 100 μg/mL streptomycin sulfate, and 25 μg/mL gentamicin. The tumor cells were grown in tissue culture flasks in a humidified incubator at 37° C., in an atmosphere of 5% CO2 and 95% air.
2.5×10^6 to 5×10^6 HCT116 tumor cells were injected subcutaneously into the flank of mice. Tumor weights were calculated following surgical removal. Treatment was initiated when tumor volume reached 60-80 mm^3. Dosing volume was 10 mL/kg (0.2 mL/20 g mouse).
TEM8 Ab (hIgG1) doses were 5 and 15 mg/kg, three times per week, for 3 weeks. Bevacizumab was dosed at 5 mg/kg, twice per week, for 3 weeks. FIG. 1B and FIG. 1D show mean tumor growth and percent body weight change for each group, respectively, over the time course of the study.

H460 cells = assay: H460 non-small cell lung carcinoma xenograft model, M830 with bevacizumab or paclitaxel; type: in vivo, athymic nude mice; details: for % Tumor Reduction vs. combination partner at Day (#): Day 32
Procedure: Animals were monitored for regression responses.
as §1
Cultured H460 cells were harvested during exponential growth and resuspended in phosphate buffered saline at a concentration of 1×10^8 cells/mL. 1.0×10^7 tumor cells were injected subcutaneously into the flank of athymic nude mice. Animals were euthanized when tumors reached the pre-determined volume endpoint of 2000 mm^3 or on the final day (Day 88), whichever came first.

[1] = combination partner Bevacizumab

`Nc1ccn([C@@H]2O[C@H](CO)[C@@H](O)C2(F)F)c(=O)n1` [gemcitabine] was tested, and the “outcome (survival) compared to vehicle-treated controls” value (H460 tumors) was “not statistically different”.

`N.N.[Cl][Pt][Cl]` [Cisplatin, cisplatin] was tested, and the “outcome (survival) compared to vehicle-treated controls” value (H460 tumors) was “statistically significant survival benefit”.

B1: M830: TEM8 monoclonal antibody (hIgG1), VH SEQ ID NO:5, VL SEQ ID NO:6 (antibody, V domains shown)
VH: EVQLVESGGGVVQPGRSVRLSCAASGFTFSTYTMHWVRQAPGKGLEWVAIISNDGSNKYYADPVRGRFTISRDNSKNTLYLQMNSLRAEDTAVYYCVRGSSWYRGNWFDPWGQGTLVTVSS
VL: DIQMTQSPSSLSASVGDRVTIACRASQTISRYLNWYQQKPGKAPKLLIYAASSLQSGVSSRFSGSGSGTEFTLTISSLQPEDFATYFCQQTYSPPITFGQGTRLEIKR
modifications: TEM830 mAb VH; TEM830 mAb VL
For B1, the “% Tumor Reduction vs. combination partner at Day (#)” value (DLD-1 tumor cells; [1]) was 48%, the “% Tumor Reduction vs. combination partner at Day (#)” value (DLD-1 tumor cells; combination partner Irinotecan) was 53% and the “% Tumor Reduction vs. Vehicle at Day 21” value (HCT116 tumor cells) was 39.5%^. The “outcome (survival) compared to vehicle-treated controls” value (H460 tumors) was “not statistically different”, the “% Tumor Reduction vs. combination partner at Day (#)” value (H460 cells; [1]) was 58.5% and the “% Tumor Reduction vs. Vehicle at Day 21” value (H460 cells; combination partner Bevacizumab, M830 IP 3 times per week) was 94.5%^. The “regression (vs. Vehicle at Day 21)” value (H460 cells; combination partner Paclitaxel) was “(−61%” and the “% Tumor Reduction vs. combination partner at Day (#)” value (H460 cells; combination partner Paclitaxel) was 94%.

Reference: patent publication US10799584B2, “Combination therapies using agents that target tumor-associated stroma or tumor cells and alkylating agents” (BIOMED VALLEY DISCOVERIES, INC., priority 2014, dated 2020)
